Experimental data: PMC3553985 (Nucleic Acids Research, 2012)

T1: γ subunit of Sulfolobus solfataricus aIF2 (Ss-aIF2γ), native version (S. solfataricus, UniProt Q980A5 2-415)
T1 sequence: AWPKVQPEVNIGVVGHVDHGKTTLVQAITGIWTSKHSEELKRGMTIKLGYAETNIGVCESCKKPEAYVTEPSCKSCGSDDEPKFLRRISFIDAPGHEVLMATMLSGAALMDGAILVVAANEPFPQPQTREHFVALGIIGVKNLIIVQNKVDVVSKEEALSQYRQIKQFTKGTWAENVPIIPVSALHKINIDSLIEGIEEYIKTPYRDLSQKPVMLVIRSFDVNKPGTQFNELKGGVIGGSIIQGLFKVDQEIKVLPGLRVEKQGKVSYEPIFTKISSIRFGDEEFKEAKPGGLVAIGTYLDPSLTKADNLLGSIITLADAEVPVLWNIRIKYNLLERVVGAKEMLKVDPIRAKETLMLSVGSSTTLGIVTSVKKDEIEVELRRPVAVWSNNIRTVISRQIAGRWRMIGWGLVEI


Target: T1, γ subunit of Sulfolobus solfataricus …
Test: SEC

Binder | binding result
yeast eIF2αΔC274, His-tag removed (SAXS sample) (domain or fragment) MSTSHCRFYENKYPEIDDIVMVNVQQIAEMGAYVKLLEYDNIEGMILLSELSRRRIRSIQKLIRVGKNDVAVVLRVDKEKGYIDLSKRRVSSEDIIKCEEKYQKSKTVHSILRYCAEKFQIPLEELYKTIAWPLSRKFGHAYEAFKLSIIDETVWEGIEPPSKDVLDELKNYISKRLTPQAVKIRADVEVSCFSYEGIDAIKDALKSAEDMSTEQMQVKVKLVAAPLYVLTTQALDKQKGIEQLESAIEKITEVITKYGGVCNITMPPKAVTAT | binds
yeast αD3ΔC274, His-tag removed (SAXS sample) (domain or fragment) TPQAVKIRADVEVSCFSYEGIDAIKDALKSAEDMSTEQMQVKVKLVAAPLYVLTTQALDKQKGIEQLESAIEKITEVITKYGGVCNITMPPKAVTAT | binds
